For test [1], the target named is T1, human GCC (guanylyl cyclase C) (human, UniProt P25092 24-1073).
T1 construct: Target of the IHC on formalin-fixed, paraffin-embedded HEK293-GCC xenografts, GCC-transfected cell pellets and human colon tissues; also called hGCC; STAR
Nature of the test: IHC on FFPE GCC-transfected and parental cell pellets.

The target in test [2] is T1, human GCC (guanylyl cyclase C). Nature of the test: automated IHC (TechMate) on FFPE colon tumors and cell pellets, antibody at 1.0 ug/ml overnight.

From patent US9273146 (Takeda / Millennium, dated 2016) come the findings set out here.

T1 sequence (P25092 24-1073 limits assumed): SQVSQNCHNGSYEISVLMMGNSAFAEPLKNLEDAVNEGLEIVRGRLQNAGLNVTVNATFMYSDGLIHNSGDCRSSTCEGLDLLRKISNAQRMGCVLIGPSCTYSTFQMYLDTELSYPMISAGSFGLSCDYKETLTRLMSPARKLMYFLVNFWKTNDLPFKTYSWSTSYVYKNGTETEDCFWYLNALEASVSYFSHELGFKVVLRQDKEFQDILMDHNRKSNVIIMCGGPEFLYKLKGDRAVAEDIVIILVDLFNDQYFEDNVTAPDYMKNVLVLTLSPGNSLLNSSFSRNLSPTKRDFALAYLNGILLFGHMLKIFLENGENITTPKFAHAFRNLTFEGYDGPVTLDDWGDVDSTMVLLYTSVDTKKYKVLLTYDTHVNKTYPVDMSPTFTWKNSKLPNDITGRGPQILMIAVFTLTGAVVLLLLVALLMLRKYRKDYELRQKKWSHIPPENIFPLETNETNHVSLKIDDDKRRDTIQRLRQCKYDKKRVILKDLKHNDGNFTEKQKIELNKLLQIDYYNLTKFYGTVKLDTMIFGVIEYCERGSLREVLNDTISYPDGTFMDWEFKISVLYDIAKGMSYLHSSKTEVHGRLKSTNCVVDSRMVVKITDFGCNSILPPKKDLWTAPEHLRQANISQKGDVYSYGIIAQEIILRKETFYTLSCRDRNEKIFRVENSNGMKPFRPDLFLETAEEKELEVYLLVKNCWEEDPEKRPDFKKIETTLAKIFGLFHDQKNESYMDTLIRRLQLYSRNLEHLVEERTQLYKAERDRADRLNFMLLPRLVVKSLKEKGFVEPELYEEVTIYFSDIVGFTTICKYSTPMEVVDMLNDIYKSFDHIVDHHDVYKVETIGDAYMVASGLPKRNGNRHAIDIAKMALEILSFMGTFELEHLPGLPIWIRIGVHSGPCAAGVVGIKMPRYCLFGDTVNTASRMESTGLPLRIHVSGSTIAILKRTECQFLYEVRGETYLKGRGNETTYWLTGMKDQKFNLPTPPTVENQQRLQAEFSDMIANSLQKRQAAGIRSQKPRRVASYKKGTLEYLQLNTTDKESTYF

B1: MIL-44-67-4 (antibody, V domains shown)
VH: QSVEESGGRLVTPGTPLTLTCTASGSDISNYAISWVRQAPGKGLEFIGYISYGKSIYYASWAKGRFAISKTSSTTVDLEITSPTTEDTATYFCAREDSATYSPNLWGPGTLVTVSS
VL: AYDMTQTPASVEVAVGGTVTIKCQASQSINTYLAWYQQKPGQRPKLLIYRASTLASGVSSRFKGSGSGTEFTLTISGVECADAATYYCQQGYSYNNLDRAFGGGTEVVVTG
notes: Rabbit monoclonal IgG from a rabbit-rabbit hybridoma; also called MIL-44-67-4 antibody; subclone #67-4
B1: in test [1], the binding result is “binds”.

B2: MIL-44-148-2 (antibody, V domains shown)
VH: QSVKESGGGLFKPTDTLTLTCTVSGFSLSSHRMNWVRQTPGKGLEWIAIITHNSITYYASWAKSRSTITRNTSENTVTLKMTSLTAADTATYFCAREDSMGYYFDLWGPGTLVTISS
VL: AYDMTQTPASVEVAVGGTVTIKCQASQSISNWLAWYQQKPGQSPKPLIYRASTLASGVSSRFRGSGSGTQFTLTISGVECADAATYYCQQTYTNNHLDNGFGGGTEVVVKG
notes: Rabbit monoclonal IgG from a rabbit-rabbit hybridoma
With B2, in test [2], the binding result is “binds”.
